US20020102260A1

Molecular target: VEGFR-2
Assay: cell-based or functional assay

Work on “VEGF-DΔN (from UniProt O43915 93-354) (ligand)” yielded an activity towards the VEGFR-2 bioassay of 10 fold.
